Key:
[1] = biological target: T1, Histidine-tagged recombinant human FcγRI (CD64) (human, UniProt P12314 16-288, limits assumed); assay: SPR, His-FcγRI captured; Expt 2;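 further: biacore T200 SPR at 25 °C, Fc-variant antibodies at 100 µg/mL flowed 1 min over anti-His-captured receptor, signal read near injection end minus third buffer blank; antibody analyte injected at 100 µg/mL for 1 min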
T1 construct: bought

[2] = biological target: T1, Histidine-tagged recombinant human …; assay: SPR, His-FcγRI captured; Expt 3;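 further: biacore T200 SPR at 25 °C, Fc-variant antibodies at 100 µg/mL flowed 1 min over anti-His-captured FcγRI, signal taken just before injection end minus a buffer blank cycle; antibody analyte injected at 100 µg/mL for 1 min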
Experimental: (§1) Binding analysis was carried out by surface plasmon resonance at 25° C. using a Biacore® T200 instrument with Biacore® T200 control software. The sample compartment was held at 5° C. The running buffer (HBS-EP+) consisted of 0.01 M HEPES pH 7.4, containing 0.15 M NaCl, 3 mM EDTA, and 0.05% v/v Surfactant P20. Methods were run using the manufacturer's standard method wizards as described in the Biacore® T200 Instrument Handbook.
(§2) The cell was activated by treatment with EDC/NHS for 7 min. The antibody was diluted to 10 μg/mL in 10 mM sodium acetate pH 5.0 and injected for 7 min at 5 μL/min. The flow cell was deactivated by injection of 1M ethanolamine for 7 min. This process was repeated in the absence of anti-his antibody on a separate flow cell to generate a reference surface. […] Samples of purified antibodies comprising variant Fc regions (1 mg/mL in PBS) were diluted with running buffer to 100 μg/mL and were injected for 1 min at 30 μL/min and allowed to disassociate for 2 min. Between each cycle, the chip was regenerated by injection of 10 mM glycine pH 3.0 for 0.5 min at a flow rate of 30 μL/min and recharged with a fresh injection of FcγRI. At the beginning of each experiment, three blank cycles were run, with buffer alone being injected instead of test sample. The average SPR signal (relative to the reference cell) was measured in a window approximately 8 to 13 seconds before the injection of test sample (baseline) and approximately 3 to 8 seconds before the end of injection (response). The response of the third of the blank (buffer) samples was subtracted from the response of each test sample in order to allow for any dissociation of the bound FcγRI giving a corrected response for each test sample. The whole experiment was repeated three times with the test samples being analysed in different orders each time.

[3] = biological target: T1, Histidine-tagged recombinant human …; assay: SPR, His-FcγRI captured; mean;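 further: biacore T200 SPR at 25 °C, anti-His surface capturing FcγRI, Fc-variant antibodies injected at 100 µg/mL for 1 min, signal near injection end minus third buffer blank, three repeats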
[4] = biological target: T1, Histidine-tagged recombinant human …; assay: SPR, His-FcγRI captured; Expt 1;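 further: SPR at 25 °C on anti-His antibody chip capturing FcγRI, Fc-variant antibodies injected at 100 µg/mL for 1 min, signal near end of injection minus buffer blank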
Experimental: as §1, §2

| Binder | Corrected response (RU) [1] [RU] | Corrected response (RU) [2] [RU] | Corrected response (RU), Mean [3] [RU] | Corrected response (RU) [4] [RU] |
| --- | --- | --- | --- | --- |
| anti-CD20 human IgG1 L234A/G236R (antibody, also called 1-9) heavy: not shown light: QIVLSQSPAILSASPGEKVTMTCRASSSVSYIHWFQQKPGSSPKPWIYATSNLASGVPVRFSGSGSGTSYSLTISRVEAEDAATYYCQQWTSNPPTFGGGTKLEIKRTVAAPSVFIFPPSDEQLKSGTASVVCLLNNFYPREAKVQWKVDNALQSGNSQESVTEQDSKDSTYSLSSTLTLSKADYEKHKVYACEVTHQGLSSPVTKSFNRGEC | 49.3 | 74.7 | 70.4 | – |
| anti-CD20 human IgG1 L234S/L235V/G236R (antibody, also called 2-53) heavy: QVQLQQPGAELVKPGASVKMSCKASGYTFTSYNMHWVKQTPGRGLEWIGAIYPGNGDTSYNQKFKGKATLTADKSSSTAYMQLSSLTSEDSAVYYCARSTYYGGDWYFNVWGAGTTVTVSSASTKGPSVFPLAPSSKSTSGGTAALGCLVKDYFPEPVTVSWNSGALTSGVHTFPAVLQSSGLYSLSSVVTVPSSSLGTQTYICNVNHKPSNTKVDKKVEPKSCDKTHTCPPCPAPESVRGPSVFLFPPKPKDTLMISRTPEVTCVVVDVSHEDPEVKFNWYVDGVEVHNAKTKPREEQYNSTYRVVSVLTVLHQDWLNGKEYKCKVSNKALPAPIEKTISKAKGQPREPQVYTLPPSRDELTKNQVSLTCLVKGFYPSDIAVEWESNGQPENNYKTTPPVLDSDGSFFLYSKLTVDKSRWQQGNVFSCSVMHEALHNHYTQKSLSLSPGK light: QIVLSQSPAILSASPGEKVTMTCRASSSVSYIHWFQQKPGSSPKPWIYATSNLASGVPVRFSGSGSGTSYSLTISRVEAEDAATYYCQQWTSNPPTFGGGTKLEIKRTVAAPSVFIFPPSDEQLKSGTASVVCLLNNFYPREAKVQWKVDNALQSGNSQESVTEQDSKDSTYSLSSTLTLSKADYEKHKVYACEVTHQGLSSPVTKSFNRGEC | – | 4.3 | 2.4 | 0.7 |
| anti-CD20 human IgG1 L234D/L235S/G236R (antibody, also called 2-10; 1-29) heavy: QVQLQQPGAELVKPGASVKMSCKASGYTFTSYNMHWVKQTPGRGLEWIGAIYPGNGDTSYNQKFKGKATLTADKSSSTAYMQLSSLTSEDSAVYYCARSTYYGGDWYFNVWGAGTTVTVSSASTKGPSVFPLAPSSKSTSGGTAALGCLVKDYFPEPVTVSWNSGALTSGVHTFPAVLQSSGLYSLSSVVTVPSSSLGTQTYICNVNHKPSNTKVDKKVEPKSCDKTHTCPPCPAPEDSRGPSVFLFPPKPKDTLMISRTPEVTCVVVDVSHEDPEVKFNWYVDGVEVHNAKTKPREEQYNSTYRVVSVLTVLHQDWLNGKEYKCKVSNKALPAPIEKTISKAKGQPREPQVYTLPPSRDELTKNQVSLTCLVKGFYPSDIAVEWESNGQPENNYKTTPPVLDSDGSFFLYSKLTVDKSRWQQGNVFSCSVMHEALHNHYTQKSLSLSPGK light: QIVLSQSPAILSASPGEKVTMTCRASSSVSYIHWFQQKPGSSPKPWIYATSNLASGVPVRFSGSGSGTSYSLTISRVEAEDAATYYCQQWTSNPPTFGGGTKLEIKRTVAAPSVFIFPPSDEQLKSGTASVVCLLNNFYPREAKVQWKVDNALQSGNSQESVTEQDSKDSTYSLSSTLTLSKADYEKHKVYACEVTHQGLSSPVTKSFNRGEC | 2.7 | 3.6 | 3.4 | – |
| anti-CD20 human IgG1 L234D/L235Q/G236R (antibody, also called 2-9; 1-27) heavy: QVQLQQPGAELVKPGASVKMSCKASGYTFTSYNMHWVKQTPGRGLEWIGAIYPGNGDTSYNQKFKGKATLTADKSSSTAYMQLSSLTSEDSAVYYCARSTYYGGDWYFNVWGAGTTVTVSSASTKGPSVFPLAPSSKSTSGGTAALGCLVKDYFPEPVTVSWNSGALTSGVHTFPAVLQSSGLYSLSSVVTVPSSSLGTQTYICNVNHKPSNTKVDKKVEPKSCDKTHTCPPCPAPEDQRGPSVFLFPPKPKDTLMISRTPEVTCVVVDVSHEDPEVKFNWYVDGVEVHNAKTKPREEQYNSTYRVVSVLTVLHQDWLNGKEYKCKVSNKALPAPIEKTISKAKGQPREPQVYTLPPSRDELTKNQVSLTCLVKGFYPSDIAVEWESNGQPENNYKTTPPVLDSDGSFFLYSKLTVDKSRWQQGNVFSCSVMHEALHNHYTQKSLSLSPGK light: QIVLSQSPAILSASPGEKVTMTCRASSSVSYIHWFQQKPGSSPKPWIYATSNLASGVPVRFSGSGSGTSYSLTISRVEAEDAATYYCQQWTSNPPTFGGGTKLEIKRTVAAPSVFIFPPSDEQLKSGTASVVCLLNNFYPREAKVQWKVDNALQSGNSQESVTEQDSKDSTYSLSSTLTLSKADYEKHKVYACEVTHQGLSSPVTKSFNRGEC | 5.9 | 7.1 | 6.2 | 5.7 |
| anti-CD20 human IgG1 L234A/L235T/G236R (antibody, also called 2-5; 1-15) heavy: not shown light: QIVLSQSPAILSASPGEKVTMTCRASSSVSYIHWFQQKPGSSPKPWIYATSNLASGVPVRFSGSGSGTSYSLTISRVEAEDAATYYCQQWTSNPPTFGGGTKLEIKRTVAAPSVFIFPPSDEQLKSGTASVVCLLNNFYPREAKVQWKVDNALQSGNSQESVTEQDSKDSTYSLSSTLTLSKADYEKHKVYACEVTHQGLSSPVTKSFNRGEC | 11.2 | 17.3 | 14.3 | 14.6 |
| anti-CD20 human IgG1 L234R/G236R (antibody, also called 2-41) heavy: not shown light: QIVLSQSPAILSASPGEKVTMTCRASSSVSYIHWFQQKPGSSPKPWIYATSNLASGVPVRFSGSGSGTSYSLTISRVEAEDAATYYCQQWTSNPPTFGGGTKLEIKRTVAAPSVFIFPPSDEQLKSGTASVVCLLNNFYPREAKVQWKVDNALQSGNSQESVTEQDSKDSTYSLSSTLTLSKADYEKHKVYACEVTHQGLSSPVTKSFNRGEC | 3.9 | 10.7 | 5.2 | – |
| anti-CD20 human IgG1 L234D/L235T/G236R (antibody, also called 2-11; 1-30) heavy: QVQLQQPGAELVKPGASVKMSCKASGYTFTSYNMHWVKQTPGRGLEWIGAIYPGNGDTSYNQKFKGKATLTADKSSSTAYMQLSSLTSEDSAVYYCARSTYYGGDWYFNVWGAGTTVTVSSASTKGPSVFPLAPSSKSTSGGTAALGCLVKDYFPEPVTVSWNSGALTSGVHTFPAVLQSSGLYSLSSVVTVPSSSLGTQTYICNVNHKPSNTKVDKKVEPKSCDKTHTCPPCPAPEDTRGPSVFLFPPKPKDTLMISRTPEVTCVVVDVSHEDPEVKFNWYVDGVEVHNAKTKPREEQYNSTYRVVSVLTVLHQDWLNGKEYKCKVSNKALPAPIEKTISKAKGQPREPQVYTLPPSRDELTKNQVSLTCLVKGFYPSDIAVEWESNGQPENNYKTTPPVLDSDGSFFLYSKLTVDKSRWQQGNVFSCSVMHEALHNHYTQKSLSLSPGK light: QIVLSQSPAILSASPGEKVTMTCRASSSVSYIHWFQQKPGSSPKPWIYATSNLASGVPVRFSGSGSGTSYSLTISRVEAEDAATYYCQQWTSNPPTFGGGTKLEIKRTVAAPSVFIFPPSDEQLKSGTASVVCLLNNFYPREAKVQWKVDNALQSGNSQESVTEQDSKDSTYSLSSTLTLSKADYEKHKVYACEVTHQGLSSPVTKSFNRGEC | 4.3 | 5.5 | 4.3 | 3 |
| anti-CD20 human IgG1 L234D/L235H/G236R (antibody, also called 2-6; 1-21) heavy: QVQLQQPGAELVKPGASVKMSCKASGYTFTSYNMHWVKQTPGRGLEWIGAIYPGNGDTSYNQKFKGKATLTADKSSSTAYMQLSSLTSEDSAVYYCARSTYYGGDWYFNVWGAGTTVTVSSASTKGPSVFPLAPSSKSTSGGTAALGCLVKDYFPEPVTVSWNSGALTSGVHTFPAVLQSSGLYSLSSVVTVPSSSLGTQTYICNVNHKPSNTKVDKKVEPKSCDKTHTCPPCPAPEDHRGPSVFLFPPKPKDTLMISRTPEVTCVVVDVSHEDPEVKFNWYVDGVEVHNAKTKPREEQYNSTYRVVSVLTVLHQDWLNGKEYKCKVSNKALPAPIEKTISKAKGQPREPQVYTLPPSRDELTKNQVSLTCLVKGFYPSDIAVEWESNGQPENNYKTTPPVLDSDGSFFLYSKLTVDKSRWQQGNVFSCSVMHEALHNHYTQKSLSLSPGK light: QIVLSQSPAILSASPGEKVTMTCRASSSVSYIHWFQQKPGSSPKPWIYATSNLASGVPVRFSGSGSGTSYSLTISRVEAEDAATYYCQQWTSNPPTFGGGTKLEIKRTVAAPSVFIFPPSDEQLKSGTASVVCLLNNFYPREAKVQWKVDNALQSGNSQESVTEQDSKDSTYSLSSTLTLSKADYEKHKVYACEVTHQGLSSPVTKSFNRGEC | 3.8 | 7.7 | 5.2 | 4.3 |
| anti-CD20 human IgG1 L234T/L235V/G236R (antibody, also called 2-64) heavy: QVQLQQPGAELVKPGASVKMSCKASGYTFTSYNMHWVKQTPGRGLEWIGAIYPGNGDTSYNQKFKGKATLTADKSSSTAYMQLSSLTSEDSAVYYCARSTYYGGDWYFNVWGAGTTVTVSSASTKGPSVFPLAPSSKSTSGGTAALGCLVKDYFPEPVTVSWNSGALTSGVHTFPAVLQSSGLYSLSSVVTVPSSSLGTQTYICNVNHKPSNTKVDKKVEPKSCDKTHTCPPCPAPETVRGPSVFLFPPKPKDTLMISRTPEVTCVVVDVSHEDPEVKFNWYVDGVEVHNAKTKPREEQYNSTYRVVSVLTVLHQDWLNGKEYKCKVSNKALPAPIEKTISKAKGQPREPQVYTLPPSRDELTKNQVSLTCLVKGFYPSDIAVEWESNGQPENNYKTTPPVLDSDGSFFLYSKLTVDKSRWQQGNVFSCSVMHEALHNHYTQKSLSLSPGK light: QIVLSQSPAILSASPGEKVTMTCRASSSVSYIHWFQQKPGSSPKPWIYATSNLASGVPVRFSGSGSGTSYSLTISRVEAEDAATYYCQQWTSNPPTFGGGTKLEIKRTVAAPSVFIFPPSDEQLKSGTASVVCLLNNFYPREAKVQWKVDNALQSGNSQESVTEQDSKDSTYSLSSTLTLSKADYEKHKVYACEVTHQGLSSPVTKSFNRGEC | 3.6 | 5.4 | 3.9 | – |

Source: patent US20230235013A1 (MABSOLVE, published 2023)
